These results are taken from PMC6572788 (Nature Communications, 2019).

For data set [1], the target named is T1, 2PT-NBD1 (human CFTR NBD1, residues 387–646, S492P/A534P/I539T) (Homo sapiens (human), CFTR M470 allele …, S492P | A534P | I539T, biotin (in the ELISA; site not stated)). Nature of the data set: cell-based or functional assay.
Data set [2] deals with T1, 2PT-NBD1 (human CFTR NBD1, residues …). Nature of the data set: ITC; nanobody titrated into 2PT-NBD1; NanoITC, 20 °C; 20 mM Hepes pH 7.5, 150 mM NaCl, 10% glycerol, 10% ethylene glycol, 2 mM ATP, 3 mM MgCl2; one-site binding model. Particulars: both partners purified.
Data set [3] deals with T2, human wt-CFTR stably overexpressed in BHK-21 cells (human, UniProt P13569).
T2 construct: human CFTR, wild type, full length, in BHK-21 cells; also called cellular CFTR; FL-CFTR; source: BHK-21 cells, stably overexpressing; in permeabilised cells (flow cytometry) and solubilised with 1% DMNG (pull-down)
Nature of the data set: flow cytometry on cells; BHK-21 cells stably overexpressing human wt-CFTR or 2PT-F508del-CFTR, permeabilised with 0.01% β-DDM on ice; 50 µg ml^−1 nanobody; detection by anti-His6 or anti-cMyc antibody and anti-mouse-Alexa Fluor 488. To be noted: one partner purified.

T1 sequence (P13569 387-646 V470M/S492P/A534P/I539T): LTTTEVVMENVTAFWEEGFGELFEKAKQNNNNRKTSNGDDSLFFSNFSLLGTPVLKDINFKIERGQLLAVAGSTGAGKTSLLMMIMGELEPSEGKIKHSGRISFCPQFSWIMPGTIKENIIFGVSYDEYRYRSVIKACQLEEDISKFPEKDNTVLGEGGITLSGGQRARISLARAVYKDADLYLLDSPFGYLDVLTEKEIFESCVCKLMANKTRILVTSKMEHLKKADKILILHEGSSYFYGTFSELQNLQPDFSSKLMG
T2 sequence (P13569 whole entry): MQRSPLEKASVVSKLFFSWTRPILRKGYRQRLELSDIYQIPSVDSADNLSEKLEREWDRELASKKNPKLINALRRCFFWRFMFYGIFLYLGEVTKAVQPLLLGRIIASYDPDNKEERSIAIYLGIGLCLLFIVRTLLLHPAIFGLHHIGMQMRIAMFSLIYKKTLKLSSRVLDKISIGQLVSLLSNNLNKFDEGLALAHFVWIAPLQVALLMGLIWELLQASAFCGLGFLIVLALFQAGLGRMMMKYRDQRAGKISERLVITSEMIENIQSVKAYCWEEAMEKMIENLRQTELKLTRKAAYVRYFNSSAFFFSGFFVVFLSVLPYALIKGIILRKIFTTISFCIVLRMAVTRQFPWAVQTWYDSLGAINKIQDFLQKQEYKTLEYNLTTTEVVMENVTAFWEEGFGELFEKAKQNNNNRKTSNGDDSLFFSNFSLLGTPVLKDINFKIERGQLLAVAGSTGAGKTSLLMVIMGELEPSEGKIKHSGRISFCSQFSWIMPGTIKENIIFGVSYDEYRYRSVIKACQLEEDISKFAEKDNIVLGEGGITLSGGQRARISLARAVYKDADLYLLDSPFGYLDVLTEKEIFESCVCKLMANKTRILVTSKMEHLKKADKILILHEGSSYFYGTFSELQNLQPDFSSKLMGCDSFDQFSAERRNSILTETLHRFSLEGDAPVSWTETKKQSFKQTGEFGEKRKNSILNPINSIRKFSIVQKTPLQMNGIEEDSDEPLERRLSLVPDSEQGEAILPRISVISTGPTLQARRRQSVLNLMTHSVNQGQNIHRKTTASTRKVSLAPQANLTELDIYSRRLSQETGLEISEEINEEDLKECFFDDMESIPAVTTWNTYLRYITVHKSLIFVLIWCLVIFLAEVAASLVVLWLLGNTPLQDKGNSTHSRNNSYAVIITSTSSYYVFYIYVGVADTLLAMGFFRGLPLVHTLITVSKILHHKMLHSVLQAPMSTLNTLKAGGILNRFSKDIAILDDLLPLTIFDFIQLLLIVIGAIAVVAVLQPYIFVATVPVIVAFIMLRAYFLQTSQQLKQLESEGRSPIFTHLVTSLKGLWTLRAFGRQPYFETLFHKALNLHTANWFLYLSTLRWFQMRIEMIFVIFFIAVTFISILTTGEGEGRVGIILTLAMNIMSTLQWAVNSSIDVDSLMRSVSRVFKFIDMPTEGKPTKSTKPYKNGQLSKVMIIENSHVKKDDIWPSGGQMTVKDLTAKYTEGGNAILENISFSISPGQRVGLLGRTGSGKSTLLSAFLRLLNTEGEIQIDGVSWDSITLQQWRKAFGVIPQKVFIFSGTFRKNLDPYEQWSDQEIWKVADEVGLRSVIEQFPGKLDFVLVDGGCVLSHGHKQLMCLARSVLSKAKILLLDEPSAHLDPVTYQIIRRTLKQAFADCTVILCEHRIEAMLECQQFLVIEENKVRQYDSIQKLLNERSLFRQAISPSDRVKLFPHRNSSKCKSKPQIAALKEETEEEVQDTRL

B1: nanobody T4 (VHH)
VHH: QVQLQESGGGLVQAGGSLRLSCAASGSTFAIIAMGWYRQAPGKQRELVAVISTGDTRYADSVKGRFTISRDNAKNTVYLQMDSLRPEDTAVYYCNAAVQVRDYRNYWGQGTQVTVSS
notes: pXAP100 vector, C-terminal His6-cMyc tag; source: E. coli BL21(DE3) pLysS, periplasmic extract, purified (Ni-NTA, SEC); not shown: His6, C-terminal, kept; cMyc, C-terminal, kept
For B1, in data set [1], the “increase of the apparent Tm of 2PT-NBD1 by thermal shift assay (DSF; 10 µM NBD1, 30 µM nanobody)” value came out at 12.5 °C. Further, in data set [2], the Kd is 37.9 nM and the “stoichiometry N” value came to 1. Also, the binding result in data set [3] is “binds”.

B2: nanobody G3a (VHH)
VHH: QVQLQESGGGLVQAGGSLRLSCTASGRAFSWYVMGWFRQAPGKEREFVATVSGNGSRRDYADSVKGRFTISRDNAKNTVYLQMNSLKPEDTAVYYCAASSTYYYTDPEKYDYWGQGTQVTVSS
notes: as for B1
In the case of B2, in data set [2], binding was put at a Kd of 1100 nM and the “stoichiometry N” value stood at 1. Further, the binding result in data set [3] is reported as “binds”.

B3: nanobody T8 (VHH)
VHH: QVQLQESGGGLVQPGGSLRLSCAASGSTSSINAMGWYRQAPGKQREPVAISSSGGDTRYAEPVKGRFTISRDNAQNKVYLQMNSLKPEDTAVYYCWLNWGRTSVNSWGQGTQVTVSS
notes: as for B1
As for B3, the “increase of the apparent Tm of 2PT-NBD1 by thermal shift assay (DSF; 10 µM NBD1, 30 µM nanobody)” value in data set [1] was found to be 9.1 °C. Also, in data set [2], the Kd is 39 nM and the “stoichiometry N” value came to 1. In data set [3], the binding result is given as “binds”.

B4: nanobody D12 (VHH)
VHH: QVQLQESGGGLVQAGSSLRLACAATGSIRSINNMGWYRQAPGKQRGMVAIITRVGNTDYADSVKGRFTISRDNAKNTVYLQMNSLKPEDTATYYCHAEITEQSRPFYLTDDYWGQGTQVTVSS
notes: as for B1
On to B4, for which the “increase of the apparent Tm of 2PT-NBD1 by thermal shift assay (DSF; 10 µM NBD1, 30 µM nanobody)” value in data set [1] stood at 13.8 °C. In addition, the binding result in data set [3] is given as “binds”.

B5: nanobody T2a (VHH)
VHH: QVQLQESGGGLVQAGGSLRLSCAASGSIFRIDAMGWYRQAPGKQRELVAHSTSGGSTDYADSVKGRFTISRDNAKNTVYLQMNSLKPEDTAVYYCNADVRTRWYASNNYWGQGTQVTVSS
notes: as for B1
B5: the “increase of the apparent Tm of 2PT-NBD1 by thermal shift assay (DSF; 10 µM NBD1, 30 µM nanobody)” value in data set [1] came to 11.2 °C. For the same molecule, in data set [2], binding was characterised by a dissociation constant (Kd) of 54 nM and the “stoichiometry N” value was 1. The binding result in data set [3] is “binds”.

B6: nanobody T27 (VHH)
VHH: QVQLQESGGGLEQPGGSLRLSCATSGVIFGINAMGWYRQAPGKQRELVATFTSGGSTNYADFVEGRFTISRDNAKNTVYLQMNGLRPEDTAVYYCHATVVVSRYGLTYDYWGQGTQVTVSS
notes: as for B1
B6: in data set [1], the “increase of the apparent Tm of 2PT-NBD1 by thermal shift assay (DSF; 10 µM NBD1, 30 µM nanobody)” value was 11.9 °C. Further, in data set [2], the equilibrium dissociation constant (Kd) turned out to be 25 nM and the “stoichiometry N” value came out at 1. Further, in data set [3], the binding result is “binds”.
